Test: soluble fraction after stress (log2 fold change); higher = more stays soluble; pooled small domains, quantitative proteomics
Conditions: stress: 50 degC
Outline: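 Pooled custom libraries of small protein domains were measured in a high-throughput format, with quantitative proteomics as the read-out. Each library was stressed at 50°C. Aggregation propensity is given as the base-two logarithm of the fold change in how much of each protein stays soluble after the stress. Higher values mean a larger share of the protein remains in solution.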

Point of comparison: “HMDVMNEIQQKAFDIYIQSASLKNDFTPISERALAKKLHDMGLKSSMSAIGRWKKKFGWVQSLQNKVTLA”, “soluble fraction (log2)” value -0.128. Against it:
- HMERPLFVIEDYRRFAGNEVEISLKKGGKKIRGVIAGTPSDAEVTVRTQGGETTVPLGDVKRAHLVYV — higher, 0.123
- HMEQISIETRIEQLLARLSETEASGFEELFADTSSRADLITTFLALLEMIRLKLVRVFQDGSFGPIRIYKR — within 0.2 log units, -0.27
- HMIVVMQPGATKEQVQAVIDRVAEFGFQTKLAPGAERMVIGVVGSPLPDTLKEALERLPGVEEVIRVSKR — within 0.2 log units, -0.0691
- HMKNKRERLGIISEILRMQVIGSQEELLDILRAKGYDVTQATLSRDLKVLKVAKTPLSNGAYKYVLPPQ — within 0.2 log units, 0.0519
- HMKTGTTGLIGEIGVVKKALTPEGKVFVHGELWRAVSKTASPEGTLVQVIKINNLVLEVEKV — lower, -1.47
- HMTGKLGKIILQPKQTVYGITKKYQISESELRRLNPQLDSHLKIGDEVILPAENIKKFGGNQPVAVS — higher, 0.311
- HMDPNFKYIIRIANSDVSGEQKLAYALTSIRGIGERTSNAIIQKLGLDSTQLAGKLTDKNVEDIESA — within 0.2 log units, -0.027
- HMGKAYMVPDVKNKSVNQAQLLLADKHMNGVVVDSSYVKELPAGIVLDQTPVGGMKVKEGRTVYLTINSD — within 0.2 log units, -0.0262
- HMKNYYRILGLNIDAEYEEIKAAYRILAQRHHPDKGGAAAEFRLIQEAYDILSNPLTKRNYDADLLATLN — lower, -0.521
- HMAIVNVEVPSLVGKTEQEARNLLTEAGLKVNVVNDEDESKNDGVVLRQSKDAGTEVQEGTTITITVNKVS — within 0.2 log units, -0.218
- HMFIMQTVALGSEGPDVRALQSILNRIGYNAGTVDGIFGSRTRQAVIAFQRNNGLAADGVAGPATWG — higher, 0.122
- HMDLSPEQAELAAIRGELGIKIDDYALALNIPRDRLTSYLYGRANVPAEVLISARELRYASSA — within 0.2 log units, 0.00303
- HMVKLSVGDIVQFAGGPHYVSSSAAKPASSPTAGPAKVTMIYQGAKHPYHIVHTTSASTVWGWVDADKVVK — within 0.2 log units, -0.245
- HMAPQAETLLRQVMALPSKDRAVLYLHYYEGFSTREVGDMLHISQSAVTTRLLRARKKLKEIL — higher, 0.0889
- HMDVQEILGALSPDEKAAIGQLTSGEKHIDQIIAATRLPAARITSALTLLQIKGYVRALPGKRFSLTEKQ — within 0.2 log units, -0.0961
- HMDLQNIQNQLNTEFAKSDTRIIFWFDDKGEYEDEVSELQLGDVKLHILDGLNWFYSKYLLNEA — within 0.2 log units, -0.274
- HMEFDIDAAIHAALEPQAVMRAWFGHEGREYPEDFGVVFFRGWESFTHQEKVEAVRDAKKVLDRAVR — lower, -0.516
- HMTEQLTLVGKTGVTTTDLRPSGKVEVDGKRYDAVADNGAFISKGAHIKVVRYVTGQVYVVPTD — higher, 0.0883
- HMGGRRHANMSREEEAAFLAPFFEKAAQGGILVVREIRQALDAHLGRTVPLSTVYNLLHRHNWRKL — lower, -2.71
- HMRIGINDRIHEIVDVLRLKKSTPFEDLFSGLVTRFDLVITFLALLEMGKLRLLRLYQTDPLAPLHVEYTG — within 0.2 log units, -0.152
- HMKALHEEIAEKIQEQILRSNLAPGDKLDTELELAARYGVSRSTIRQALIQLESAGLIDRLHGRGTFVAD — higher, 0.425
- HMFVTGTTIKKLREEKRMTQGELAQMIGVSDKAVSKWETGRGLPDISLLEPLSRALGISVAELFAGQH — within 0.2 log units, -0.0392
- HMGLDQNTLDRVDDINDTLATGIEIGPETRGTIEELNETLANGLKAGFDEETLARVDELLRVVEDGLK — within 0.2 log units, 0.0149
- HMGQISLSVNAIPEKAEVILDGNSIGNTPIRKNTITPGSHMFEIEKKGYAPISYDIYVNPSKAINLDFFM — lower, -0.63
- HMISESLLDEIPGLGETRRNSLLREFGSVAMIRKASAEEIASRVRGIGAEFAAAIHDFLQTH — within 0.2 log units, -0.0611
- HMEGVSPQTVQEHIRRFIAAEDPASPLSDEALREALGNLGINASRRTVAKYRGEMGIPSSAQRKR — within 0.2 log units, -0.053
- HMQAVDPLELRAGDFVVHEQHGIGRYVEMVQRTIGGITREYLVIEYAPAKRGQPNDRVFVPTDTLEQVS — lower, -0.514
- HMEKGNEEALEQAREAILAVQSGEKYVDLDPANAAIRRKQHALAQASDLVSQSYGKDPNRYVRIFR — higher, 0.34
- HMSENDTILAKFVSVMGNKNLELVIFPDIAYLKGQVSNPEDKTKAETVAQSLLGGKPLVSLIEFE — higher, 0.218
- HMFHGEGVQANNIQAYIVLKMAAVNGAEDALDTADEVSEKMSREDLETATQVLGQIFRKYLMELQSA — lower, -1.2
- HMGGEGQIEIREREGIPAEAWVDGVMRGQTPLRVEHVSIGTRRVELRAEGRPPVAADVLVRPTVTALVELS — higher, 0.271
- HMIGPYAAAKLMTNKDFVKWLSGGVEKSVFNPNSFGQHIRRLVQISEVNPDIRDEINAVVQGLTQ — lower, -0.361
- HMDPGPVLISAQVLDDLEAIRRDGSSNMLDWPAVARLAEVMGMDRTAAWVRTHHREYSAGIFRGFASD — lower, -1.68
- HMGMTRPLFVTDPGLVRIGLVSPIFEKLGSGKLSPQLFDQVKEDPPEQTVFDGVEFARETGIDGVIGFG — within 0.2 log units, -0.124
- HMKARLRRVFQIYYGDAYSIMKALKETFPLQTIVHEPRTNSIVVDTPDEETATKIGDVVSAL — lower, -0.392
- HMSDDLIILGYSMLNNALKAFHIDPDSIKKKHWDKLAQDYHLKNKNQILTDIALGKRVNIMVAHQLTTIMD — lower, -0.633
- HMSETQDQTTIEIEDMITVGTLAERLSIPVSTLIGELMKNGVMATVNEKIDFDTAQIIVGELKLPIELSKK — higher, 0.201
- HMDDDAELLLKKLSAAGGELPFHDRSEPAEIEAAFGLSKSAFKRALGKLLKAGKVVKTQQGIQLK — within 0.2 log units, 0.0395
- HMGAGKVVDGVTYDFVFDVDVADGQPPLRLPYNRGEDVYQAAERFILRNELPATYREQIVNFIVQNTPG — within 0.2 log units, -0.131
- HMDEKSGWLHLAPHEGALRAALYAEHAVQEERTAPDGSQWLRLVLREKHYHQIQSKYNRRLTLHTQPDPS — higher, 0.113
- HMHGLNQNKPIPIADIVNSVNNYLTSLGKKTITDNSVLSNLKKAAKYLNTAYNLVLRPDSLNMTVTLL — within 0.2 log units, 0.0467
- HMGVTVDEVHRNFESGMNVVHKKFGAGVVDSFDEGKIRINFDGVIKVFIADVLINSGMLESVSYTH — within 0.2 log units, -0.212
- HMLSNYIGMTLGEAKRNLGQGVNITVNGPNNDNAEVTGQDPTSGSSFDKSKDTITLTT — within 0.2 log units, 0.0581
- HMLFQGDTPAENIILEILSKNGTTASDSIIKQSGLSVSDFNQAATMLEIKGLISNNGGNIWSL — within 0.2 log units, 0.0636
- HMGALSLDMLFDRFDALQEQSMGDKTEGGQELRGMIRTFIEQEKLDIRVTRTTTNAALLEMIEKEMQG — lower, -0.451
- HMSSTSTKTQNIVHIVKSGETLSAIASKYGVSVDNIKKWNNLSSDKLSIGQKLKINPTTQTSS — higher, 0.245
- HMEEITLIAEDEGLRLDTWLTDKLKDYSRSYIQKLMEDELVLVNGKARKANYRIKTGDEIHVSIPEPE — within 0.2 log units, -0.0342
- HMGIKLSDRQMQIVEIVKSQQPITSEQVAERLNLTRAALRSDLSILTMAGILEARPKVGYSLTGR — lower, -0.334
- HMGFSLEQFGTDPDLKKIVENAFERIITASEGRIFKSDFSSNNSALPLEIFSFLIAVILLKLSGMN — within 0.2 log units, -0.142
- HMNIEEQVVAEVLVKDFMKQLTPRDIHILELRKNGYTYQEIAGQLGYHTHSAVKKRVDRLAEQWLAYTQGH — lower, -1.53
- HMNIDVAAEKQQLGPNADQIVKGTVTWMQGLVAKGIWSETDFEEGKIFTATADGINAINKIRRYYGEQT — within 0.2 log units, -0.0611
- HMSFPLKRGSKGNRVTQLQNALVKKFGASILPKYGVDGMFGKEVEAALVRAKLPTSINESTYNSFV — higher, 0.12
- HMTMNYFIIENNQQVGPLTLEQLVARNITSDTLVWKEGMEDWQPAWKVDELHTVLDQIRANAEQ — within 0.2 log units, -0.0599
- HMGDLEEAVKDFSEAIRLNDSWAEAYANRAVVYAEQGDAAQSDQDAEKARLLGVDQNRLNEMLNAVNS — within 0.2 log units, 0.0258
- HMGHASPGNREALQFALERHQARAAEFAEKAGLSIANASTKFKQLWEQGFLMRNESVADSGGVEFLYQR — within 0.2 log units, -0.0221
- HMGTRPAYAADAPNPQKRFIYHRIVDQLRNKATGAPISYRAIAAETGVSVQTVINIKNRMNQMLSEK — within 0.2 log units, -0.0598
- HMGKNYYEILGITKSASEEQVRKAFRGLAMEWHPDRNRSADSEERFKEINEAYQVLIDPKKRQMYDQYGR — higher, 0.388
- HMKDYKSALQELIQSGDKRVISYHTLKETGPSHNREFEAAVKLDGNIILGVGKGKTKKEAEQNAAHEALKK — higher, 0.172
- HMEIIMIVITKPSITDERIAEIVAVIERNGGVQAHVSKGTDRTVIGIIGKAEPTLAEHLRQMKGVENVIKI — within 0.2 log units, 0.0636
- HMVSLLDWAYKQVRRMLFSGDLPQGQKIVVAQLANQLSISPTPVKEALNRLAVEGLLEAVPRRGFQVR — within 0.2 log units, -0.229
- HMSNIIGNTAYSAIPDKQYFRLKSETAEKVANYLTENNIPFSGRINGDKTTLTIGQKNVDDYKAAVATVTG — within 0.2 log units, 0.0593
- HMSVSVEEDADGRVWVYYQDQKMDITDLFDENGVYGFNLEKGDRTVYVEVTKNADGTYSFTQTD — within 0.2 log units, -0.0127
- HMEWVVVPDVRRQLLPEAQRRVNKARLRLEVAGGWPAEPLLAMVVDQKPGPETRVPLNSIVVVVVRNLP — within 0.2 log units, -0.0473
- HMVSVLDHIVGIGAKRRQSLWNHFGTIDKIKAASIDELLKAPGMNRPSAEAVYYFFEAQRQLRGK — lower, -0.744
- HMNAQLTTQEAADLLNVSRPHLVKLLEDGELPFLRTGKHRRVRLADLLQFKNAREQASVQAMDELSRQAQ — higher, 0.154
- HMPIDIEPVLQWIRDNSIDGIGPARSMYHSAAAAAGLPSYSSLQLRKWTWPLLLDAAGVQRR — lower, -0.433
- HMSAPQKWDGSLQDFIRFKQEAKTLMDNIPNKRLALNAILETISDGKMRKRLAKYDGPESALKSLELEFGN — within 0.2 log units, -0.0592
- HMATSLTEQEKLIFGLLKKQSPIELSSLKEQAGLSNKKWDKAIKGLSTQQLAKVTKTENGLFVHLLQ — higher, 0.148
- HMSRFLEGILQRRAGGKNYFVPDDGSNPIFIADRNSAGAANGDRVRIAQFARRPRSGPEGEVVEILKRAK — within 0.2 log units, -0.00665
- HMEAGLRMPEQLTAFSALALLQKVRDSGPLTDAQKEQLDADVLRIEASHFGKADREALELEEILKQWLSRV — within 0.2 log units, -0.135
- HMRKATEVPFTAFKDSIENSHGKLSKAGLARHLADEYGMSQRNMERRINNLIDNKTIKYGNEGGLVWIG — within 0.2 log units, -0.0291
- HMALQDKYKELTDAATAAGVTDLQVREQDNVLYIDGTAPSGAVKDQLWAIYDKIDPNFVSGDLVLNVNVD — within 0.2 log units, 0.0655
- HMAEQDILQSVYPHIGGQDNVSRTISRNGTLYLMLKDASAVDLKAVKQVPGIADAALERGRLTLQLEE — within 0.2 log units, 0.0398
- HMNDVLVGAIPESASGSRLDKVMPSVFPPYSRSQLQVWLKQGRILMGNGIPSPRLIVSGGEVLSLVVPELP — lower, -0.971

Reference: the domain aggregation screens of Martell et al. (2025)
